Results as given in the supplement of paper PMC9170038.

Tested on: MS2 coat protein
Assay: apparent KD of MS2 coat protein; higher = weaker reporter binding
Conditions: Eterna round: R107
Description: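 RNA-MaP round R107: designed RNA switches with theophylline, tryptophan, arginine or FMN aptamers are transcribed on-chip within common flanks. They are titrated with SNAP-549-labelled MS2 coat protein in RNA-MaP buffer (100 mM Tris pH 7.5, 80 mM KCl, 4 mM MgCl2), without ligand or with the indicated ligand. Median apparent KD per design.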

[1] = input ligand: theophylline 20 uM
[2] = input ligand: theophylline 2 mM
[3] = input ligand: tryptophan 2.4 mM

Sequence	apparent KD of MS2 coat protein (input ligand: arginine 13.2 mM) [nM]	apparent KD of MS2 coat protein (input ligand: none) [nM]	apparent KD of MS2 coat protein [1] [nM]	apparent KD of MS2 coat protein [2] [nM]	apparent KD of MS2 coat protein [3] [nM]
AACGUAUACAGAAGGAGCGUGAAAUAAGUAAAUUAAUAAUAAACAUGAGGAUCACCCAUGUCACAGGUAGGUCGCUGUAUUCGUA [JR_ExcArginiB_Sub017]	15.5	21.5	23.6	21.5	18.4
AACGUAUACAGAAGGAGCGUGAUUUAUAAUUCUUUAAAAUAUACAUGAGGAUCACCCAUGUCACAGGUAGGUCGCUGUAUUCGUA [JR_ExcArginiB_Sub024]	29.8	35.7	43.1	35.2	33.2
AACUUCGCAUAGGAAAACUAUGUGAAGAAUCGAGGACCGGUACGGCCGCCACUCGUCCUCAACAUGAGGAUCACCCAUGUAAUAA [Mat - Exclusion - Trytophan A - D4]	22.1		25.4	22.6	
AAGACAUGAGGAUCACCCAUGUGUCAUGAAGGAGCGUCGGAAAUGACAGGUAGGUCGCAUGACCGUUGGCGCCGGAAACGGCGCA [SSAA #15]	23.8	30.5	35.3	33.3	23.5
AAGACGGUCGGAAGGAGCGGUACAUGAGGAUCACCCAUGUACUUCUGGGCAUCCGUAGUGUGCCAGGUAGGUCGCCGAUUGCGGG [XArg-B12]	32.7	22.4	36.3	24.9	22.8
AAGGAAAAGGCGGCCGCCACUGGAAAGGCGAAAGCCAAGAAAACAUGAGGAUCACCCAUGUCAUGUAGGACCGGGCCAAAAGGAA	10	21.9	26.3	14.7	23.7
AAUAAACAUGAGGAUCACCCAUGUAUGGAAGGAGCGGUAAAUAAACCAGGUAGGUCGCCAGUGUGAGGGUCAUCUAUGUAAUAAA [Exclusion - Arginine A (Freestyle 1)]	40.8	32	53.6	74.9	33.4
AAUAACAUGAGGAUCACCCAUGUAAAAGAUACCAGGGUGAUGAUCCUCCCUUGGCAGCUUACAGCUGAUCAAUAAGAUCGGCUGA [TheoAS #Tail #MS2BeforeAptamer #BothOrNeither]	87.5		256		184
AAUAAGUACUUUGAUACCAGCCUGCCAUCAUGCUAAUUUACAUGAGGAUCACCCAUGUUAGGCCCUUGGCAGCAAAGUGCAAUAA [XTheo B #1]	12.8		15.8		12.4
AAUACCGGAUCGGCCGCCACUGGUUGGCCCUGUGUACAUGAGGAUCACCCAUGUCCAUCCCAAGCCAGGACCGGGAUCUUUGUGU [Bedice]	17.1		24.9	18.5	
AAUCAUAGGGCGGCCGCCACUAAACAUGAGGAUCACCCAUGUCUCGAGGGCUUGCGUUUGGGAAGUAGGACCGGGCCAAUAGUAA [Tryp B Ex Mod2]	18	19.1	23	17	16.1
AAUGAACAUGAGGAUCACCCAUGUCGUGAUACCAGCCGUAAGAGUGGCCCUUGGCAGCGCCAUGAGGACAACAACAUACAUGAGG [Same State Theophylline A]	22.9		29.7		24.8
AAUGAGUGGUGGUCAAGUGAUCCUCAUGAACGAGGACCGGUACGGCCGCCACUCGAUAACAUGAGGAUCACCCAUGUAAUAAUAA [|T'-M'-Trp-Ms2|_Design8]	15.6		18.9	22.4	
AAUUAAAACUGAAGGAGCGUCGUGCGUGGGUGCGUCCCACAUGAGGAUCACCCAUGUGGUUGACAGGUAGGUCGCAGAAUAAUUU [Exclusion - Arginine B]	66.9	49.7	95.5	155	36.6
AAUUAAACAUCGGCCGCCACUUACUCAUGAGGUAACAACAUGAGGAUCACCCAUGUUUGAGGAUCAAGGACCGGGAUGUAAUAAU [AstrosSSTryB#2]	23.2		38.5	36.8	
AAUUAUCACGGAAGGAGCGUCAUGAAAUUGAUACAUGAGGAUCACCCAUGUGAGUGUUAGAGACAGGUAGGUCGCCGAUUAUUGA [JR_AAArginiB_Sub028]	24.9	30.7	43.1	49.3	31
AAUUCCUCACAUGAGGAUCACCCAUGUGAAGGAGCGCCGAAUAAGGCAGGUAGGUCGCACAUGGAAACCUCUACGAAAGUAGUAA [XArg-A 3 NuV1V2]	16.5	15.8	20.8	18.2	15.6
AAUUUGUCGGGUGAUACCAGCCUCGGCGCAUCUCGCGCUGAACAUGAGGAUCACCCAUGUGGCCCUUGGCAGCACAUGACAAAUC [Veerdira]	153		587		757
ACAACAUGAGGCGAUACCAGAGGCAACAUGAGGAUCACCCAUGUUCACCCAUGUGAUCACCUCCCUUGGCAGCGCACAUGAGGAU [Same State - Theophylline B #1]	13.7		17		12.3

Sequence	apparent KD of MS2 coat protein (input ligand: arginine 13.2 mM) [nM]	apparent KD of MS2 coat protein (input ligand: none) [nM]	apparent KD of MS2 coat protein [1] [nM]	apparent KD of MS2 coat protein [2] [nM]	apparent KD of MS2 coat protein [3] [nM]
ACAUCCAGAUUAAUCGUGGGCAUACUCGAUACCAGUAUUUUAAUCUACCCUUGGCAGCGACAUGAGGAUCACCCAUGUGCGAUGA [XTheo A #11]	11.7		13.9		12.4
ACAUGAGGAUCACCCAUGUACAUGAGGGAAGGAGCGGUACAUGUGCCAGGUAGGUCGCCCAACAGCAUCAGCCAUGUACAACAGG [zqwmullin]	41.3	162	72.6	79.2	61
ACAUGAGGAUCACCCAUGUAGCCUAGGGAAGGAGCGUCGUAAGAGACAGGUAGGUCGCCCGCAUGUGAGUCAUCCAUGACGAGGG [#18 Same State - Arginine A]	25.7	25.9	30.1	23.6	21.1
ACAUGAGGAUCACCCAUGUGUCCUCGAAAACGAGGACCGGUACGGCCGCCACUCGAAAUAAGCUGUUGACGAAAAGUCAGCAGCA [Mat - Exclusion - Trytophan A - D21]	74.5	126	173	152	316
ACAUGAGGAUCACCCAUGUGUGUAAGUUCUCGAGGACCGGUACGGCCGCCACUCGAACGAGUGUAACGUUAUACUUAGUAUAAUG [SS Trp A s4]	22.6	11.4	21.3	15.2	11.4
ACAUGAGGAUCACCCAUGUUAAACAGGGUGCGAGGACCGGUACGGCCGCCACUCGGACAUUAUUACGAGUGAAUGGUAACGAUGU [#13 Exclusion Tryptophan A]	21.1		33.6	26.5	
ACAUGAGGAUCACCCAUGUUCCUCAUUGAUACCAGUGAAUUUAGACGCCCUUGGCAGCGAGUUUUUUUAUAAGUUUUUUUUUUUU [6.J]	276		913		874
ACAUGAGGAUCACCCAUGUUGCUGACAGAAGGAGCGUGAUUAAGCACAGGUAGGUCGCUGUUGGUAUCGAGCGUUAGCUCGAUAC [SSArg A #8]	34.6	32	41.7	33.7	50
ACAUGUUGGUGGUACCAACGAAGGCGGAAACGAGGACCGGUACGGCCGCCACUCGGCGACAUGAGGAUCACCCAUGUGGUUAAAA [Exclusion - Tryptophan A (Freestyle 3)]		398	134	95.7	70
ACAUUUAACUGAAGGAGCGUGAUAUUUACAUGAGGAUCACCCAUGUCUUUCAUGAUAUAUUCACAGGUAGGUCGCAGACUAAUGA [JR_ExcArginiB_Sub006]	118	125	160	306	184
ACCUGCGUUUGAUUCUAUCAGACGCAGGUUCGAGGACCGGUACGGCCGCCACUCGGACAUGAGGAUCACCCAUGUUUGACAUGGG [#04 Exclusion Tryptophan A]	134		281	1010	
ACGACGCAUAGUGAUACCAGUAGAACAUGAGGAUCACCCAUGUCUGUGGCGCACCACCUCUGCCCUUGGCAGCACUAUGCGUCAG [SSTheo B #9]	12.6		17.4		14.1
ACGAUAGCACAAGAGGAUCACCCUUGUGAUACCAGCCUGGAAACAGGCCCUUGGCAGCACACAAAUAAAUUGUAACUAUCGAAUA [TheoAX5 #MicroSwitchBubble #AlternativeMS2]	22.5	23.6	43.9	112	29.3
ACGAUAGGACCUGAGGAACACCCAGGUGAUACCAGCCUGGAAACAGGCCCUUGGCAGCACCAAUACUCCAAUAACCUAUCGAAUA [TheoAX 12 #MicroSwitchBubble #AlternativeMS2]	141	547	521	366	518
ACGCUGAUUGAUUACAAUCAGCGAAAAGAUACCAGUGGGUAAUCCCACCCUUGGCAGCUUAAAUAUGAGGAUCACCCAUAUGGUA [TheoAS 18 #MS2Right #BothOrNeither #AlternativeMS2]	54.6	108	155	412	86.1
ACUAACUAUAGUGAUACCAGACGUACAUGAGGAUCACCCAUGUUACAUUCUUGGUUAAAAGUCCCUUGGCAGCACGAUAAGUUCG [JR_Nu_ExcTheophyB_Sub025]	9.7		11.2		10
AGACAUGAGGAUCACCCAUGUAGUACGGAUACCAGAUCCAGAUGUAUCCCUUGGCAGCUGUGGUACAGCGUUACAUCGCUCGUAG [Exclusion - Theophylline A (Freestyle 21)]	10.4	13.3	18.4	16.6	16.2
AGAGCAUUGACGGCCGCCACUCAUGUCACAUGAGGAUCACCCAUGUGAUGGGUAAUCGCCCGGUUGAGGACCGGGUCAAUGCUCA [Omei Tryp SS B v3]	6.69	6.99	16.9	8.46	10.7
AGAGUCAGACAAAAGUCUGGCUCAACCGAAGGAGCGUCCGAAAGGACAGGUAGGUCGCGGUUACCUGAGGAUCACCCGGGUUCCU [ArgAS 9 #OpenEnded #AlternativeMS2]	100	65	110	1040	659
